This is an account of results in PMC3527619.

The target in test [1] is Microtubules (polymerized Tubulin, Triton-insoluble fraction) of HeLa cells (human (endogenous in HeLa)) (UniProt P68363). Nature of the test: Triton-X-100 extraction of soluble and insoluble (cytoskeletal) fractions, Western blot and densitometry; HeLa cells transfected with pCGN-Centaurin-α2; 0.1% Triton-X-100 in Pipes pH 6.94, EGTA, MgCl2, 2 M glycerol, 10 min at room temperature; control cells or cells treated with nocodazole (3 µg/ml, 3 h) or cold (4°C, 3 h).

For test [2], the target named is Tubulin purified from bovine brain, polymerised to microtubules in vitro (bovine) (UniProt Q6B856). Nature of the test: co-sedimentation; 40 µM tubulin plus 5 µM Centaurin-α2, 90 minutes of polymerization at 37°C in 80 mM K-PIPES pH 6.9, 2 mM EGTA, 1 mM MgCl2, 10% glycerol; 16500 g for 30 minutes; supernatant and pellet on SDS-PAGE, Coomassie, densitometry.
The target is the same in test [3]. Nature of the test: co-sedimentation; as a4 (40 µM tubulin plus 5 µM Centaurin-α2, 90 minutes at 37°C), then 30 minutes of incubation on ice before centrifugation (37°C→4°C).

Sequence of UniProt P68363 (P68363 whole entry, chain 1 of 2): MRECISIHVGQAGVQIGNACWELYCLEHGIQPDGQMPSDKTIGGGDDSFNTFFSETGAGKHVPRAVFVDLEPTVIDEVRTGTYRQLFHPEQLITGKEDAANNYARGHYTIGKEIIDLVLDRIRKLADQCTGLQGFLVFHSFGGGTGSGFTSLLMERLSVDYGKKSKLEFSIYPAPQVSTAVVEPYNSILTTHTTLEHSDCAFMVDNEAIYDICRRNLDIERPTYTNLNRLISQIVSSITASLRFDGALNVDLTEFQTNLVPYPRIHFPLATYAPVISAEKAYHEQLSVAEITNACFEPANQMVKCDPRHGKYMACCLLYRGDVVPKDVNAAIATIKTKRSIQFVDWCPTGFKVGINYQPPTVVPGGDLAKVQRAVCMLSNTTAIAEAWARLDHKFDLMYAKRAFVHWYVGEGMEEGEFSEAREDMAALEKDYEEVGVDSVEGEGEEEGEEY
Sequence of UniProt P68363 (P07437 whole entry, chain 2 of 2, further chain): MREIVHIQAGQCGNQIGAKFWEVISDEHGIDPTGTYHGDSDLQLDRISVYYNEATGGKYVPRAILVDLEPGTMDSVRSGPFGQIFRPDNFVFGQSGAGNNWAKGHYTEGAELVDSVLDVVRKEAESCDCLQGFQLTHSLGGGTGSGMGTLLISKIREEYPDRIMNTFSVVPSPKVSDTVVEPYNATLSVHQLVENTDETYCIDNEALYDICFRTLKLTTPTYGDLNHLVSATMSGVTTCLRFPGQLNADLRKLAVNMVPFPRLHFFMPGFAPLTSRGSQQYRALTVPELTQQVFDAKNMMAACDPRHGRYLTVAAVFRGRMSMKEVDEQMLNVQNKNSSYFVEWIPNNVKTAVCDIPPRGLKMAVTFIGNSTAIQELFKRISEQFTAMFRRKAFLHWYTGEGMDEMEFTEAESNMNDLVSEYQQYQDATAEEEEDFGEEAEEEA

B1: HA (hemoagglutinin)-tagged Centaurin-α2 (pCGN-Centaurin-α2) (natural protein)
chain: MGDRERNKKRLLELLRAPDTGNAHCADCGAADPDWASYKLGIFICLNCCGVHRNFPDISRVKSVRLDFWDDSIVEFMIHNGNLRVKAKFEARVPAFYYIPQANDCLVLKEQWIRAKYERREFMADGETISLPGNREGFLWKRGRDNSQFLRRKFVLLAREGLLKYFTKEQGKSPKAVISIKDLNATFQTEKIGHPHGLQITYRRDGHTRNLFVYHESGKEIVDWFNALRAARLQYLKMAFPELPESELVPFLTRNYLKQGFMEKTGPKQKEPFKKRWFALDCHERRLLYYKNPLDAFEQGQVFLGNKEQGYEAYEDLPKGIRGNRWKAGLTIVTPERRFVLTCPSEKEQQEWLESLRGVLSSPLTPLNRLTASTESGRSSR
For B1, in test [1], the percent of Centaurin-α2 in the Triton-insoluble (MT) fraction worked out at 80%.

B2: His-tagged Centaurin-α2 (recombinant, pET-Centα2) (natural protein)
chain: B1 chain
In the case of B2, the percent of Centaurin-α2 in the MT (pellet) fraction in test [2] came out at 80%; in test [3], 50%.
